Test results taken from PMC13393422, “Cross-regulation of amino acid synthesis and anaerobic electron transfer by MetR-mediated methionine signaling”.

T1: MetR (C-his-MetR) (Shewanella oneidensis MR-1, UniProt Q8EIM1 1-301)
T1 sequence: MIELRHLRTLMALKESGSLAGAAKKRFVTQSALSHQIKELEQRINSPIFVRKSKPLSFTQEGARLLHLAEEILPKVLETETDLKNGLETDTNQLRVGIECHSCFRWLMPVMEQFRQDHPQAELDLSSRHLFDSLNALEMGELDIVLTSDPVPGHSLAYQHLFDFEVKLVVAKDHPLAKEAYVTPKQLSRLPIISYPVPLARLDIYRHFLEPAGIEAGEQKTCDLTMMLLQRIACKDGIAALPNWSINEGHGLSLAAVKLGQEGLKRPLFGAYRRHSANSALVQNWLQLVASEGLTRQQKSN


Columns and labels:
[1] = target: T1, MetR (C-his-MetR); assay: EMSA; 4 mM hCys; 0-250 ng MetR (4B), 500 ng (4C); 50 mM Tris-HCl pH 8.0, 0.5 mM EDTA, 2 mM MgSO4, 1 mM DTT, 100 ug/mL BSA, 10 ug/mL poly(dI-dC), 4 mM hCys, 20% glycerol, 1 nM Cy3 probe, 20 uL; 20 C 10 min; gel; conditions: protein: recombinant; tags: C-terminal His tag (pET-26b(+), NdeI/XhoI); chain copies: 4; label: 5'-Cy3 on strand 2; blunt
[2] = target: T1, MetR (C-his-MetR); assay: competition; 4 mM hCys; 5,000-fold excess over labeled omcA probe, shift disappeared; 50 mM Tris-HCl pH 8.0, 0.5 mM EDTA, 2 mM MgSO4, 1 mM DTT, 100 ug/mL BSA, 10 ug/mL poly(dI-dC), 4 mM hCys, 20% glycerol, 1 nM Cy3 probe, 20 uL; 20 C 10 min; gel; conditions: protein: recombinant; tags: C-terminal His tag (pET-26b(+), NdeI/XhoI); chain copies: 4; label: none; blunt
[3] = target: T1, MetR (C-his-MetR); assay: EMSA; 4 mM hCys; 500 ng MetR; 50 mM Tris-HCl pH 8.0, 0.5 mM EDTA, 2 mM MgSO4, 1 mM DTT, 100 ug/mL BSA, 10 ug/mL poly(dI-dC), 4 mM hCys, 20% glycerol, 1 nM Cy3 probe, 20 uL; 20 C 10 min; gel; conditions: protein: recombinant, tags: C-terminal His tag (pET-26b(+), NdeI/XhoI), chain copies: 4, label: 5'-Cy3 on strand 2

Row | Binder | binding result ([3]; blunt) | further results
1 | omcA probe (dsDNA) DNA 1: CCACACATTAAATACGACTAATGAGATTTGTTCTTATTTG DNA 2: CAAATAAGAACAAATCTCATTAGTCGTATTTAATGTGTGG | – | binding result [1]: binds
2 | omcA probe, unlabeled competitor (dsDNA) DNA 1: CCACACATTAAATACGACTAATGAGATTTGTTCTTATTTG DNA 2: CAAATAAGAACAAATCTCATTAGTCGTATTTAATGTGTGG | – | binding result [2]: binds
3 | omcA-m probe (dsDNA) DNA 1: CCACACATTAAATACGACTAAGGGGATTTGGGGGTATTTG DNA 2: CAAATACCCCCAAATCCCCTTAGTCGTATTTAATGTGTGG | no binding | –
4 | cymA probe (dsDNA) DNA 1: GTATTAGCTGGAGTTGAAGTACTCTAACGCTCTGCTAAGC DNA 2: GCTTAGCAGAGCGTTAGAGTACTTCAACTCCAGCTAATA | – | binding result ([3]; 5' overhang 1 nt on strand 1 as printed (strand 2 is 39 nt; text says 40 bp)): binds
5 | glyA probe (dsDNA) DNA 1: CTCAACTCGGCATTGAGGTGCATTCAAGTTAAAACTGTAG DNA 2: CTACAGTTTTAACTTGAATGCACCTCAATGCCGAGTTGAG | binds | –
6 | luxS probe (dsDNA) DNA 1: GCATCTGACTGATATGAGATGATTTCATCTTAAGTTATC DNA 2: GATAACTTAAGATGAAATCATCTCATATCAGTCAGATGC | binds | –
7 | metR probe (dsDNA) DNA 1: GATTTCAAGCGCAACATGAGCGAAATTCACTTGGAGTGATC DNA 2: GATCACTCCAAGTGAATTTCGCTCATGTTGCGCTTGAAATC | binds | –
8 | dmsE probe (dsDNA) DNA 1: CTTATGGTGTTTTTGAGAATGATTTTCTTTTATTTGATTTC DNA 2: GAAATCAAATAAAAGAAAATCATTCTCAAAAACACCATAAG | binds | –
